For 2 molecules, absorbance (OD450) results are on record in EP4793288A1.

The assay concerns the target Recombinant HLA-G antigen (human) (UniProt P17693). The assay is described as follows: monoclonal phage ELISA, Fab on phage, anti-M13 HRP (selection threshold). Background: An ELISA detects its analyte on a solid surface through an enzyme-linked reagent.

B1: T22A4 (Fab clone displayed on phage) (Fab, V domains shown)
VH: EVQLVESGGNWVQPGGSLRLSCAASGFSFRSYAMSWVRQAPGKGLEWVSSISGSGNSELYAGSVKGRFTISRDNSKNTLSLQLHSLRAEDTAMYYCAKFSAAVGFLPDYFDSWGQGTLVTVSS
VL: ELTLTQSPSSLSASVGDRVTITCQASHDISKYLNWYQQKSGKAPKLLIYDASNLETGVPSRFSGSGSGTDFTLTISSLQPEDFATYYCQQSYRTPLTFGGGTKLEIK
Consider B1, for which the absorbance (OD450) was greater than 0.4 OD450.

B2: T23D5 (Fab clone displayed on phage) (Fab, V domains shown)
VH: QVQLQESGPGLVKPSETLSLTCTVSGGSIDRSSHYWGWIRQPPGKGLEWLGSIYYSGITYYNPSLKSRVTISVDTSRNQFSLTLSSVTAADTAVYYCARHGSYDSWAGRYKWDRFDPWGQGTPVTVSS
VL: ELQMTQSPSSLSASVGDRVTITCQASHDISKYLNWYQQKSGKAPKLLIYDASNLETGVPSRFSGSGSGTDFTLTISSLQPEDFATYYCQQSYSTPLTFGGGTKVEIK
Turning to B2, the absorbance (OD450) is greater than 0.4 OD450.
